# Measured values published in paper PMC12319226 (Frontiers in Bioinformatics, 2025).
# Changes are numbered by the printed parent chain.
# T1: fHbp m001497 (Neisseria meningitidis, fHbp …, point mutant)
# T1 chain: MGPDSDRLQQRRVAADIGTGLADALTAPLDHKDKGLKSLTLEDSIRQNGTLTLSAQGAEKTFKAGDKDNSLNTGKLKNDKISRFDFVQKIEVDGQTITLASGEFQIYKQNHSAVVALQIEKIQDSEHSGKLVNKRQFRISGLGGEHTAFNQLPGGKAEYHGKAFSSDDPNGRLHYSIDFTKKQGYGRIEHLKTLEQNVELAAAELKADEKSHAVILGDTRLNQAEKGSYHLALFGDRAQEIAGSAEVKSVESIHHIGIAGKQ
# T2: fHbp m001152 (Neisseria meningitidis fHbp v3.28-based …, point mutant)
# T2 chain: T1 chain with N222G, Q223S, S249I, E251V
# T3: fHbp m001040 (Neisseria meningitidis fHbp v3.28-based …, point mutant)
# T3 chain: T1 chain with N222G, S249T, E251N, S252G
# T4: fHbp m001119 (Neisseria meningitidis fHbp v3.28-based …, point mutant)
# T4 chain: T1 chain with N222G, Q223S, S249T
# T5: fHbp m001118 (Neisseria meningitidis fHbp v3.28-based …, point mutant)
# T5 chain: T1 chain with N222G, Q223S, S249T, S252G
# T6: fHbp m001607 (Neisseria meningitidis, fHbp …, point mutant)
# T6 chain: T1 chain with Q223S, S249T, E251N, S252G
# T7: fHbp m001847 (Neisseria meningitidis, engineered fHbp …, chimera)
# T7 chain: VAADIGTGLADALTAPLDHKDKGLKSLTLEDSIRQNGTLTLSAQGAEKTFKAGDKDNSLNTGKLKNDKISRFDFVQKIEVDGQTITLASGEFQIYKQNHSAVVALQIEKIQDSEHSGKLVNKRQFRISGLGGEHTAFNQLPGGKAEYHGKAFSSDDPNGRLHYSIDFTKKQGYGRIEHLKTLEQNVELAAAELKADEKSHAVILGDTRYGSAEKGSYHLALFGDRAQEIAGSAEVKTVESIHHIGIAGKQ
# T8: fHbp m001768 (Neisseria meningitidis, engineered fHbp …, point mutant)
# T8 chain: T7 chain with S211Q, S240A
# T9: fHbp m001621 (Neisseria meningitidis, fHbp …, point mutant)
# T9 chain: T1 chain with Q223S, S249T, V250D, E251V, S252A
# B1: mAb 1E6 (human) (antibody, V domains shown)
# VH: EVQLVQSGAEVKKPGSSVKVSCKASGGTVIDYPITWVRQAPGQGLEWVGGFVPLFRTSNYGQKFQGRVTITADKSTSTASMELNSLTSEDTAIYYCARGDTAMGPFDYWGQGTLVTVSS
# VL: SYVLTQPPSLSVAPGKTATLTCGGNNIAGKTVHWYQQRPGQAPVLVISYDSDRPSGIPERFSGSNSANTATLTISRVEAGDEADYYCQVWDRNSDHWVFGGGTKLTVL
# notes: source: Expi293, purified (MabSelect SuRe, SEC); copies: 2 + 2
# B2: chimeric antibody h12C1 (antibody, V domains shown)
# VH: QVQLQESGPELVKPGASVKISCKASGYSFSDYNMSWVKQSNGKSLEWIGIIDPKYGTINYNQKFKGKATLTVDQASSTAYMQLNSLTSEDSAVYYCVRDYYGSSYFDYWGQGTTLTVSS
# VL: DIVLTQSPSSIYASLGERVTLTCKASQDIHNYLNWFQQKPGKSPKTLIYRANRLVDGVPSRFSGGGSGQDYSLTISSLEFEDIGIYYCLQYDEFPPTFGGGTRLEIK
# notes: also called humanized 12C1; source: Expi293, purified (MabSelect SuRe, SEC); copies: 2 + 2
# How the values were obtained:
# Experiment in all cases: BLI
# Conditions in all cases: both partners purified
# fHbp m001497 = biological target: T1, fHbp m001497
# fHbp m001152 = biological target: T2, fHbp m001152
# fHbp m001040 = biological target: T3, fHbp m001040
# fHbp m001119 = biological target: T4, fHbp m001119
# fHbp m001118 = biological target: T5, fHbp m001118
# fHbp m001607 = biological target: T6, fHbp m001607
# fHbp m001847 = biological target: T7, fHbp m001847
# fHbp m001768 = biological target: T8, fHbp m001768
# fHbp m001621 = biological target: T9, fHbp m001621
Binder,Kd (fHbp m001497),koff (fHbp m001497),kon (fHbp m001497),Kd (fHbp m001152),koff (fHbp m001152),kon (fHbp m001152),Kd (fHbp m001040),koff (fHbp m001040),kon (fHbp m001040),Kd (fHbp m001119),koff (fHbp m001119),kon (fHbp m001119),Kd (fHbp m001118),koff (fHbp m001118),kon (fHbp m001118),Kd (fHbp m001607),koff (fHbp m001607),kon (fHbp m001607),Kd (fHbp m001847),koff (fHbp m001847),also measured
B1,563 pM,0.000176 s⁻¹,311700 ± 2460 M⁻¹ s⁻¹,291 pM,0.000121 s⁻¹,415300 ± 2380 M⁻¹ s⁻¹,594 pM,0.000266 s⁻¹,447100 ± 3340 M⁻¹ s⁻¹,886 pM,0.000349 s⁻¹,393800 ± 1250 M⁻¹ s⁻¹,235 pM,8.5e-05 s⁻¹,361600 ± 2210 M⁻¹ s⁻¹,242 pM,0.000117 s⁻¹,484000 ± 5230 M⁻¹ s⁻¹,348 pM,0.000123 s⁻¹,kon (fHbp m001847): 353300 ± 2150 M⁻¹ s⁻¹; Kd (fHbp m001768): 538 pM; koff (fHbp m001768): 0.000175 s⁻¹; kon (fHbp m001768): 325000 ± 2320 M⁻¹ s⁻¹; Kd (fHbp m001621): 464 pM; koff (fHbp m001621): 0.000174 s⁻¹; kon (fHbp m001621): 375400 ± 1900 M⁻¹ s⁻¹
B2,3060 pM,0.000593 s⁻¹,193000 ± 2790 M⁻¹ s⁻¹,45900 pM,0.00937 s⁻¹,204000 ± 3360 M⁻¹ s⁻¹,523 pM,0.000192 s⁻¹,368300 ± 1820 M⁻¹ s⁻¹,957 pM,0.000266 s⁻¹,278300 ± 1110 M⁻¹ s⁻¹,42000 pM,0.0103 s⁻¹,245000 ± 3100 M⁻¹ s⁻¹,32900 pM,0.012 s⁻¹,366000 ± 13300 M⁻¹ s⁻¹,108000 pM,0.00885 ± 0.000103 s⁻¹,kon (fHbp m001847): 81800 ± 5640 M⁻¹ s⁻¹; Kd (fHbp m001768): 5510 pM; koff (fHbp m001768): 0.000453 s⁻¹; kon (fHbp m001768): 82200 ± 1160 M⁻¹ s⁻¹; Kd (fHbp m001621): 54000 pM; koff (fHbp m001621): 0.0115 s⁻¹; kon (fHbp m001621): 214000 ± 5580 M⁻¹ s⁻¹
